Assay results from patent publication US20240182585A1 (CAMBRIDGE ENTERPRISE, published 2024).

What was measured:
[1] = molecular target: T1, human GFRAL expressed on the surface of HEK293 cells (co-expressed with human RET) (human, UniProt Q6UXV0 19-394); experiment: cell-based or functional assay
T1 sequence: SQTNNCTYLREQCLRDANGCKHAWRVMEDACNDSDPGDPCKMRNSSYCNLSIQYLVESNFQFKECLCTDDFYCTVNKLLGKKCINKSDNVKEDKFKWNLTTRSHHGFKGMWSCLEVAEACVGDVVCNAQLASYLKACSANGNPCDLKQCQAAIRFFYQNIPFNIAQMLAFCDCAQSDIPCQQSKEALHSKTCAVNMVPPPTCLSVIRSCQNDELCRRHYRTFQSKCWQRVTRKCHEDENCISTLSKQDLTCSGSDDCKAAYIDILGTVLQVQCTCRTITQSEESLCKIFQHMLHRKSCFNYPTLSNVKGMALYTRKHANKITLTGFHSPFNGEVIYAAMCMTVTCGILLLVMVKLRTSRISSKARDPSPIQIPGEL

[2] = molecular target: T2, His-tagged human GFRAL (recombinant soluble GFRAL protein, R&D catalogue no. 9647-GR-050) (human, UniProt Q6UXV0 19-351); experiment: SPR, antibody captured via anti-human Fc on CM4 chip, His-tagged human GFRAL as analyte, 25 C, 1:1 model
T2 construct: Bought soluble protein; also called Human GFRAL with a 6His tag; GFRAL antigen; not shown: 6His tag
T2 sequence: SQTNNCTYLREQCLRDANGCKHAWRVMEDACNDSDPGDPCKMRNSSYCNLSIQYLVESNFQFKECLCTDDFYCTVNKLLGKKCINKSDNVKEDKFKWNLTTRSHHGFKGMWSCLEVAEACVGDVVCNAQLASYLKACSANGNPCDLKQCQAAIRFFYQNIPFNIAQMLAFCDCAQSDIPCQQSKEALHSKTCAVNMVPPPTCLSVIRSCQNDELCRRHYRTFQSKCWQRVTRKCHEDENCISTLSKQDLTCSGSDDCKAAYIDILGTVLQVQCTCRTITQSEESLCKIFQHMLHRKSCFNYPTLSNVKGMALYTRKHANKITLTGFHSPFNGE
Method: (§1) Binding of antibodies to human GFRAL was measured by SPR using His-tagged human GFRAL as analyte, and test antibody coupled to the surface of a CM4 biosensor chip via immobilised anti-human Fc antibody. Running buffer was HBS-P+ buffer pH 7.4 (GE BR100671) with 1 mM CaCl₂. Antibodies were captured for 60 seconds at 1 μg/ml (˜80-140 RU captured, depending on the binder). Analyte (recombinant soluble GFRAL protein, R&D catalogue no. 9647-GR-050) was injected at 100, 25, 6.25, 1.56, 0.39, 0.098, 0.024 and 0 nM for 120 seconds association time at […] and dissociation was monitored for 1200 seconds. The chip surface was regenerated using 10 mM glycine pH 1.5. All experiments were performed at 25° C. Sensorgrams for each antibody were double subtracted (reference cell and 0 concentration). Data were fitted to a 1:1 binding interaction model. Sensorgrams were fitted using multiple cycle kinetics mode. […] FIG. 5.

[3] = molecular target: T3, mouse GFRAL-Fc fusion (R&D catalogue no. 9844-GR-050050) (mouse, UniProt Q6SJE0 20-349); experiment: SPR, antibody captured via anti-human Fc, mouse GFRAL-Fc fusion as analyte, method of Example 2
T3 construct: Bought fusion protein; not shown: Fc part of the bought fusion
T3 sequence: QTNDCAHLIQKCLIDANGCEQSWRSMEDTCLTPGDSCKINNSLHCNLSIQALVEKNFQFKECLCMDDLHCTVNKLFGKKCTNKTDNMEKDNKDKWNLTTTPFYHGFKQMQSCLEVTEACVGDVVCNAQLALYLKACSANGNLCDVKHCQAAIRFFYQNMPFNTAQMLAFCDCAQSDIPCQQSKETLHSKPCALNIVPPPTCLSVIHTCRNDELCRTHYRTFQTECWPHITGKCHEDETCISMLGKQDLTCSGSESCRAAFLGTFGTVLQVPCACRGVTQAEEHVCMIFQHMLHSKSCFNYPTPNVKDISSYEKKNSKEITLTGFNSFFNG
Method: as §1
Affinity for mouse GFRAL was determined by SPR by the same method as in Example 2 using a mouse GFRAL-Fc fusion (R&D catalogue no. 9844-GR-050050) as analyte. FIG. 6.

[4] = molecular target: T2, His-tagged human GFRAL (recombinant …); experiment: SPR sandwich assay: row antibody captured via anti-Fc, GFRAL antigen added, then GDF15 injected as analyte (competitor: GDF15)
Method: (§2) In this assay, pairs of antibodies are tested for their ability to simultaneously bind antigen. A first antibody is coupled via its Fc region to a solid support and the GFRAL antigen is added in solution, allowing formation of an antibody-antigen complex. A second antibody is then added in solution.
The same principle may be used to assess whether an antibody and a native ligand compete for binding to antigen. Thus, a test antibody is coupled to a solid support and the GFRAL antigen is added in solution, allowing formation of an antibody-GFRAL complex. GDF15 is then added in solution.

[5] = molecular target: T3, mouse GFRAL-Fc fusion (R&D catalogue …); experiment: SPR, KD for mouse GFRAL compared with KD for human GFRAL
[6] = molecular target: T2, His-tagged human GFRAL (recombinant …); experiment: SPR sandwich assay: row antibody captured via anti-Fc, GFRAL antigen added, then mAbQ injected as analyte (competitor: mAb Q)
Method: as §2

[7] = molecular target: T2, His-tagged human GFRAL (recombinant …); experiment: SPR, KD for human GFRAL of QUEL-0301 compared with reference antibody mAb Q
[8] = molecular target: T1, human GFRAL expressed on the surface of …; experiment: cell-based or functional assay; remark: listed apart in the source

B1: QUEL-0101 (antibody, V domains shown)
VH: QVQLVESGGGVVQPGRSLRLSCAASGFAFNNYGMHWVRQGPGRGLEWVAIISYDGTTQYSVDSVKGRFTISRDNSKNTLYLQMNSLRTEDTALYYCAKEAGDFYGSGNYGYHKYGLDVWGQGTTVTVSS
VL: DIQMTQSPSSLSASVGDRVTITCRASQDISNYLAWYQQKPGKIPKLLIYAASTLQSGVPSRFSGSGSGTDFTLTISSLQPEDVASYYCQKYSSAPLTFGGGTKVEIK
notes: the antibody was captured via anti-human Fc antibody
- IC50 (ERK phosphorylation HTRF assay, 4 nM GDF15) [1]: 2.8 nM
- Kd [2]: 0.14 nM
- koff [2]: 7.87e-05 s⁻¹
- kon [2]: 561000 M⁻¹ s⁻¹
- Kd [3]: 1.19 nM
- koff [3]: 0.000112 s⁻¹
- kon [3]: 93700 M⁻¹ s⁻¹
- resonance units after GDF15 injection [4]: 87.3 resonance units
- fold difference in affinity, human against mouse GFRAL [5]: ≤ 10 fold
- resonance units after mAbQ injection [6]: 306 resonance units

B2: QUEL-0301 (antibody, V domains shown)
VH: EVQLVESGGGLVQPGGSLRLSCAASGFTFSNSWMNWVRQTPGKGLEWVANIDQDGDQKYYVDSVKGRFTISRDNAKNSLYLQMNSLRAEDTAVYYCAREITGTTFDYWGQGTLVTVSS
VL: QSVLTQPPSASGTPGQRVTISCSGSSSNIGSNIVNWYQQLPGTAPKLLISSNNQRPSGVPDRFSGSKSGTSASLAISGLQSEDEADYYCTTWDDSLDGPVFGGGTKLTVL
notes: as for B1
- IC50 (ERK phosphorylation HTRF assay, 4 nM GDF15) [1]: 9.4 nM
- Kd [2]: 0.000988 nM
- koff [2]: 9.72e-06 s⁻¹
- kon [2]: 9.83e+06 M⁻¹ s⁻¹
- fold difference in affinity against mAb Q [7]: ~4 fold
- Kd [3]: 4.95 nM
- koff [3]: 0.000524 s⁻¹
- kon [3]: 106000 M⁻¹ s⁻¹
- resonance units after GDF15 injection [4]: 77.3 resonance units
- resonance units after mAbQ injection [6]: 298 resonance units

B3: recombinant human GDF15 protein with 6-His tag (R&D Systems, 957-GD) (ligand, UniProt Q99988 197-308, looked up)
chain: ARNGDHCPLGPGRCCRLHTVRASLEDLGWADWVLSPREVQVTMCIGACPSQFRAANMHAQIKTSLHRLKPDTVPAPCCVPASYNPMVLIQKTDTGVSLQTYDDLLAKDCHCI
- EC50 (read off the curve) [8]: ~1 nM

B4: QUEL-0201 (antibody, V domains shown)
VH: QVQLVQSGAEVKEPGASVRVSCKASGYTFISHAIHWVRQAPGQRLEWMGWINAVNGNTKYSQKFQDRVTFTRDTSASTAYMDLNSLRAEDTALYYCAREGYTYGVHYSYGMDVWGQGTTVTVSS
VL: QSVLTQPPSVSGAPGQRVTISCTGSSSNIGAGYDVHWYQQLPGTVLKLLIYGNNNRPSGVPDRFSGSNSGTSASLAITGLQPEDEADYYCQSYDSSLSGYWVFGGGTKLTVL
notes: as for B1
- IC50 (ERK phosphorylation HTRF assay, 4 nM GDF15) [1]: 8.6 nM
- Kd [2]: 0.0839 nM
- koff [2]: 6.19e-05 s⁻¹
- kon [2]: 738000 M⁻¹ s⁻¹
- Kd [3]: 0.0648 nM
- koff [3]: 9.9e-06 s⁻¹
- kon [3]: 153000 M⁻¹ s⁻¹
- resonance units after GDF15 injection [4]: 83.9 resonance units
- fold difference in affinity, human against mouse GFRAL [5]: ≤ 1.5 fold
- resonance units after mAbQ injection [6]: 268 resonance units
